Experimental data reported in the nanobody polyreactivity screen of Harvey et al. (2022).

Test: yeast display, Sf9 membrane polyspecificity reagent, FACS + sequencing; frameworks hold sequencing errors
Method in brief: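 Galactose-induced (36–48 hours) yeast carrying a synthetic nanobody display library were exposed to 10% biotinylated, detergent-solubilized Sf9 membrane reagent at 4 °C for 1 hour. FACS followed streptavidin microbead enrichment, using low and high (top ~1%) gates for expression (anti-HA) and reagent binding (streptavidin). Colony PCR, MiSeq 2 × 250 sequencing and CDR-length filtering followed. Labels for polyreactivity reflect the gate of origin.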

| Sequence | polyreactivity (PSR sort gate) |
| --- | --- |
| QVQLVESGGGLVQAGGSLRLSCAASGRTFNGYALGSSRQAPGKERELVAAISGRGRSTRYADSVKGRFTISRDNAKNTVYLQMNSLNPEDTAVYYCNARGYSETQREYDSWGQGTQVTVSS | high polyreactivity |
| QVQLVESGGGLVQAGGSLRLSCAASGSIFDRYGMGLYRQAPGKETELVADITSDGSTNYADSLKGRFTISRDNAKNSVYLQMNSLKREDTAVYYCAVSYTAYYVGYDYWGQGTQVTVSS | low polyreactivity |
| QVQLVESGGGLVQAGGSLRLSCAASGSIFRVNDMGWYRQAPGKERELVAAISSNGDDTFYADSVKGRFTISRDNSKNTVYLQMNSLKPEDTAVYYCNAESPTYPDYFFKYTHYDYWGQGTQVTVSS | low polyreactivity |
| QVQLVESGGGLVQAGGSLRLSCAASGLTFGPYAMGWYRQAPGKERELVAAITSGGYTNYADSVKGRFTISRDNAMNTVYLQMNSLKPEDTAVYFCATSYYLAYRSITPYDYWGQGTQVTVSS | low polyreactivity |
| QVQLVESGGGLVQAGGSLRLSCAASGSIFGYYTMGWYRQAPGKERELVAAITSGGSTNYADSVKGRFTISRDNAKNTVYLQMNSLKPEDTAVYYCAKVSYYPWRYDYWGQGTQVTVSS | low polyreactivity |
| QVQLEESGGGLVQAGGSLRLSCAASGIIIATYAMGWYRQAPGKERELVAVISNDGSTHYADSVKGRFTISRDNAKNTVYLQMNSLKPEDTAVYYCNAEEIDEASYAYPPLEYDYWGQGTQVTVSS | low polyreactivity |
| HVQLVESGGGLVQAGGSLRLSCAASARIFVTYAMGWYREAPGKETELVAAISSRGGRTNYADSVKGRFTISRDNAQNTVYLQMNSLKPEYTAVYYFAARYWYIYNYDYWGQGTQVTVSS | high polyreactivity |
| QVQLVESVGGLVQAGGSLSLRCAASGLISRRNAMGWYRQAPGKERELVAAISTGSSTNYADSVKGRFTISRDNAKNTVYLQMNSLKTEDTAFYYCATDYLAGAPCEGHVEREYDYWGQGTQVTVSS | low polyreactivity |
| QVQRVESGGGLVQAGGSLRLSCAASGRTFWTNAMGWYRQAPGTERELVAAISGSGGSTYFADSVKGRFTISRDNAKNTVYLQMNSLKPEDTAVYYCAAYSRFRYDYWGQGTQVTVSS | high polyreactivity |
| QVQLVESGGGLVQAGGSLRLSCAASGNTFVINTMGWYRQAPGKERELVAGISRRGTSTYYEDSVKGRFTISRDNAKNSVYLQMNSLKPEDTEVYYCAVYSEIVRYEYWGQGTQVTVSS | high polyreactivity |
| QVQLVESGGGLVQAGGSLRFSCAASGRTFVPYAMGWYRQAPGKERELVARIDSSGGSTYYADSVKGRFTISRDNAKNTVYLQMNSLKPEDTAVYYCAAVFYYWSLRSYYWGQGTQVTVSS | high polyreactivity |
| QVQLVESGGGLVQAGGSLRLSCAASGSIFNYNAMGWYRQAPGKERELVAAISSGGSTNYADSVKGRFTISRDNAKNTVYLQMNSLKPEDTAVYYCAKRGKQYRKMNYWGQGTQVTVSS | high polyreactivity |
| QVQLVESGGGLVQAGGSLRLSCAASGSIFGSYTMGWYRQAPGKERELVAVINWSGDRTYYADSVKGRFTISRDNAKNNVYLHMNSLKPEDTAVYYCAARERAGYSGIRYNYWGQGSQVTVSS | low polyreactivity |
| QVQLVESGGGLVQAGGSLRLSCAASGSIFGANAMGLYRQAPGKERELLATITLRDGSTYYADSVKGRFTISRDNAKNTVYLQRNSLKPEDTAVYYCATYYSAINYGCSKTILYDYWGQGTQVTVSS | low polyreactivity |
| QVQLVESGGGLVQAGGSLRFRCAASGFTFGHYAIVWYRQAPGKERELVAAISKSGTRTYYADSVKGRFTISRDNAKNTVYLQMTSLKPEDTAVYYCATTAYNGYDYWGQGTQVTVSS | high polyreactivity |
| QVQLVESGGGLVQAGGSLRISCAASGFTLEPNTMGWYRQAPWKERELVAGISWSGGSTYYADSVKGRFTISRDNAKNTVYLQMNSLKPEDTAVYYCNAPPVRRSIVYDRRDYWGQGTQVTVSS | low polyreactivity |
| QVQLVESGGGLVQAGGSLRLICAASGRIFFVNAMGWYRQAPGKERELVAAISRSAGRTYYADSVKGRFTISRDNAKNTVYLQMNSLKPEDTAVYYCATEGRTDYNREMEYWGQGTQVTVSS | low polyreactivity |
| QVQLVESGGGLVQAGGSLRLSCAASGITFYGYAMGWSRPAPGKERELVAVITSSGSSTYYADSVKGRFTISRDKAKNTVYVQMNSLKPEDTAVYDCNARPGRRSLRSRTYDYWGQGTQVTVSS | high polyreactivity |
| QVQLVESGGGLVQAGGSLRLSCAASGRIFGVYVMGWYRQAPGKERELVAAISWSGSHTYYADSVKGRFTISRDNAKNTVYLQMNSLKPEDTAVYYCAAGASLWRLGLKMGYWGQGTQVTVSS | low polyreactivity |
| QGQLVESGGGLVQAGGSLRLSCAASGFSFLRYAMGWYRQAPGKERELVAAISTSGGSTSYADSVKGRFTISRDNAKNTVSLQKNSLKQEDTAVYYCNAVLYKVSISEYDYWGQGTQVTVSS | high polyreactivity |
| QVQLLESGGGLVQAGGSLLLSCAASGLTFHRYAMGWYRQAPGKERELFAAINYSGGRTYYADSVKGRFTISRDNAKNTVYLQMNSLKPEDSAVYYCAARYLGCDYSGSWWKYYYWGQGTQVTVSS | high polyreactivity |
| QVQLVESGGGLVQAGGSLRLSCAASGRIFSRYVMGWYRQAPGKEREFFASITWSGSSTYYADSVKGRFTISRDNAKNTVYLQMNSLKPEDTAVYYCAALGLLSPSPCGTHISEYDSWGQGTQVTVSS | low polyreactivity |

| Sequence | polyreactivity (PSR sort gate) |
| --- | --- |
| QVQLVESGGGLVQAGGSLRLSCAASGSIFYVYAMGWYRQAPGKERELVAAITSSGDTTYYADSVKGRFTISRDNAKNTVYLQMNSLKPEDTAVYYCAKVFGPTDYLTGTFKGDYWGQGTQVTVSS | low polyreactivity |
| QVQLVESGGGLVQAGGSLRLSCAASGRIFGSYAMGWYRQAPGKERELVAAISGSGSRTYYADSVKGRFTISRDNAKNTVYLQMNSLKPEDTAVYYCNKYRFRVYPFGYWGQGTQVTVSS | high polyreactivity |
| QDQLVESGGGIVQAGGSLRLSCAASGFTFLYSAMGWYRQAPGKERELVAAINRSGGRTYYADSVKGRFTISRDNAKNTVYLQMNSLKPEDTAVYYCATDTYFRSSVVFRYDYWGQGTQVTVSS | high polyreactivity |
| QVQLVESGGGLVQAGGSLRLSCAASGRIFFANTMGWYRQATGKERELVAAISLSSGSRYYADSVKGRFTISRDNAKNTVYLQMNSLKPEDTAVYYCAARGYSHVASRLYYYWGQGTQVTVSS | high polyreactivity |
| QVKLVESGGGLVQAGGSLRLSCAASGRIFWSNAMVWYRQAPGKERELVAAISRRGGRTYYADSVKGRFTISRDNAKNTVYLQMNSLKPEDTAVYYCAADGTADYDYWGQGTQVTVSS | high polyreactivity |
| QVQLVESGGGLVQAGGSLRLSCAASGLIFAGNDMGWYRQAPGKERELVARITNGGGSTYYADSVKGRFTISRDNAKNTVYLQMNSLKPEDTAVYYCNAGRSSGYSYDSWGPGTQVTVSS | low polyreactivity |
| QVQLVESGGGLVQAGGSLRLSCASSGSTFLAYAMGWDRQAPGKERELVAAISSRGSRTYYADSLKGRCTISRDTAKNTVYLQMNSLKPEDTAVYYCAARYPSGYYYWGQGTQVTVSS | high polyreactivity |
| QVQLVESGGGLVQAGGSLRLSCAASGGTFQAYAMGWYRQAPGKERELVAAISRSGGRTYYADSVKGRFTISRDNAKNTVYLQMNSLKPEDTAVYYCNAGAYYRNEMDYWGQGTQVTVSS | high polyreactivity |
| QVQLVESGGGLVQAGGSLRLSSAASGFTFKGNALGWYRQAPGKERELVATITQSAGSTYYADSVKGRFTISRDNAKNTVYLQMNSLKPEDTAVYYCNADPITLYYYSWYNYWGQGTQGTVSS | low polyreactivity |
| QVQLVESVGGLVQAGGSLRLSCAASGRIFRWNAMGWYRQAPGKEREFVAAISWSGGSTYYADSVKGRFTISRDNAKNTFYLQMNSLKPEDTAVYYCNKVGYYCVGTSQEFDYWGQGTQVTVSS | high polyreactivity |
| QVQLVESGGGLVQAGGSLRLSCAASGLTFYYYVMGWYRQAPGKERELVAAISKSGGRTYYADSVKGRFTISRDNAKNTVYLQMNSLKPEDTAVYYCAALYTPNYTAYDSWGQGTQVTVSS | high polyreactivity |
| QVQLVESGRGLDQAGGSLRLICYASGRTFLYNAMGWFRQSPGKERELVAAIRWSGGTTYYADSVKGRFTISRDNSKNNVYLQMNSLKPEDTAIYYCAARWGQYYGGVRYGYWGQGTQVTVSS | high polyreactivity |
| QVQLVESGGGLVQAGGSLRLSCAASGSTFIYYAMGWYRQAPGKEREFVAAISYRGGSTYYADSVKGRFTISRDNAKNTVYLQMNSLKPEDTAVYYCAASYRKWNDYWGQGTQVNVSS | high polyreactivity |
| QVQLVESGGGLVQAGGSLRLTCAASGFIFPLYTMGWYRQAPGKERELVAAITGSGGSTYYADSVKGRFTISRDNAKNTVYLQMNSLKPEDTAVYYCAKDYTYGMDWGQGTQVTVSS | low polyreactivity |
| QVQLVESGGGLVQAGGSLRLSCAASGRTFQVYTMGWYRQAPGKERELVAAISRSGGSTYYADSVKGRFTISRDNAKNTVYLQMNSLKPEDTAVYYCAAVPGWLTSRYYYWGQGTQVTVSS | high polyreactivity |
| QVQLVESGGGLVQAGGSLRLSCAASGFTFYKYAMGWYRQAPGKERELVAAISRRGTSTYYADSVKGRFTISRDNAKNTVYLQMNSLKPEDTAVYYCNRDVSLSAFDYWGQGTQVTVSS | high polyreactivity |
| QVQLVESGGGFVQAGGSLRLSCAASGSTFDGYAMGWYRQAPGKERELVAAITSSDGSTYYADSVKGRFTISRDNAKNTVYLQMNSLKPEDTAGYSCAAAPDWKDSLPPDMDYWGQGTQVTVSS | low polyreactivity |
| QVKHVESVGRLVQAGGSLRLSSASSGRIFRSYAMGCYRQAPGKESEYVAAISRSGGRTYYADSVKGRFTISRDNAKNTVYLQMNSLKPEDSAVYYCAVVDYHVHSSDYNYWGQGTQVTVSS | high polyreactivity |
| QVQLVESGGGLVQAGGSLRLSCAASGRIIGWYAMGRYRQAPGKERELVAAISQDATRTYYADSVKGRFTISRDNAKHTVYLQMNRLKPEDTAVYYCNVVYRYAGWSYDSWGQGTQVTVSS | high polyreactivity |
| QVQLVESGGGLVHAGGRLRLSCAAYGITFSSYAMGWYRQAPGKERELVAAITWSGTSTYYADSVKGRFTISRDNAKNTVYLQMNSLKPEYTAVSYCADEAGAPFSISHDYWGQGTQVTVSS | low polyreactivity |
| QVQLVESGGGLVQAGGSLRLSCAASGYIFYAYAMAWYRHAPGKESELVAAITDNGVSTFYADSVKGRFTISRDNAKNTVYLHMNSLIPEDTAVYYCATSSTHSRGDEYWGQGTQVAVSS | low polyreactivity |
